Test system: BLM-induced pulmonary fibrosis
Assay: BLM-induced established pulmonary fibrosis in mice, treatment d14-d21
Type: in vivo
Conditions: for BLM-induced pulmonary fibrosis (overall): mice, 1.0 U/kg BLM IT, protein 7.5 mg/kg/d IP daily for 7 days starting d14; for BLM-induced pulmonary fibrosis (overall) / lung compliance / lung elastance: d21; for BLM-induced fibrogenic marker proteins (Col1, FN, TN-C, α-SMA) in whole lung homogenates / body weight / collagen and other extracellular matrix deposits (Trichrome staining of lung sections) / fibrogenic marker transcripts in whole lung homogenates / lung weight / lung compliance / lung elastance / whole lung total hydroxyproline: protein 7.5 mg/kg/d IP, 7 days starting d14 after BLM; for lung compliance / lung elastance: flexiVent; for whole lung total hydroxyproline: lung homogenates
Protocol: FIGS. 9A-9O. M9 peptide and protein mitigated BLM-induced pulmonary fibrosis. Mice exposed to saline or 1.0 U/kg BLM by intratracheal instillation were treated with or without M9 peptide HGHVDPVKTPKI (SEQ ID NO: 4) (10 mg/kg/d) and M9 protein (SEQ ID NO: 1) 7.5 mg/kg/d) via IP injection daily for 7 days starting d14 after BLM injury. FIG. 9A: Representative micro-CT images at d21 after BLM exposure. FIG. 9B: Lung volumes were measured by quantitative-CT renditions. Lung compliance (FIG. 9C) and elastance (FIG. 9D) were measured using a flexiVent system. Lung weights (FIG. 9E) and body weights (FIG. 9F) are presented as bar graphs. Lung homogenates were tested for hydroxyproline (FIG. 9G), soluble collagen (FIG. 9H), pro-fibrogenic marker proteins (FIG. 9I) and mRNAs (FIG. 9J). Bars indicate mean±SD. Statistical significance (*P<0.05, **P<0.01, ***P<0.001 and ****P<0.0001) was assessed by one-way ANOVA with Turkey's multiple comparison. fLfs isolated from IPF lungs treated with PBS or recombinant full length M9 (rM9^FL) protein (2 μg/ml) for 48 h in vitro were tested for pro-fibrogenic proteins (FIG. 9L). fLfs (from IPF lungs) treated with PBS or extracellular domain of rM9^FL protein (rM9^ECD) as in FIG. 9L were tested for pro-fibrogenic proteins (FIG. 9N). The survival the mice treated with rM9^FL is shown FIG. 9M.
FIGS. 10A-10K. UNC5A (“U5”) peptide/protein mitigated BLM-induced pulmonary fibrosis. Mice exposed to saline or 1.0 U/kg BLM by intratracheal instillation were treated with or without U5 peptide (50 residues, SEQ ID NO: 7) (10 mg/kg/d) and full length U5 protein (SEQ ID NO: 5) (7.5 mg/kg/d) via IP injection daily for 7 days starting d14 after BLM injury. FIG. 10A: Representative micro-CT images at d21 after BLM exposure. FIG. 10B: Lung volumes were measured by quantitative-CT renditions. Lung compliance (FIG. 10C) and elastance (FIG. 10D) were measured using a flexiVent system. Lung weights (FIG. 10E) and body weights (FIG. 10F) are presented as bar graphs. Lung homogenates were tested for hydroxyproline (FIG. 10G), soluble collagen (FIG. 10H), pro-fibrogenic marker proteins (FIG. 10I) and mRNAs (FIG. 10J). Bars indicate mean±SD. Statistical significance (*P<0.05, **P<0.01, ***P<0.001 and ****P<0.0001) was assessed by one-way ANOVA with Turkey's multiple comparison.
FIGS. 11A-11K. ALG5 (“A5”) protein mitigated BLM-induced pulmonary fibrosis. Mice exposed to saline or 1.0 U/kg BLM by intratracheal instillation were treated with or without A5 protein (SEQ ID NO: 9) (7.5 mg/kg/d) via IP injection daily for 7 days starting d14 after BLM injury. FIG. 11A: Representative micro-CT images at d21 after BLM exposure. FIG. 11B: Lung volumes were measured by quantitative-CT renditions. Lung compliance (FIG. 11C) and elastance (FIG. 11D) were measured using a flexiVent system. Lung weights (FIG. 11E) and body weights (FIG. 11F) are presented as bar graphs. Lung homogenates were tested for hydroxyproline (FIG. 11G), soluble collagen (FIG. 11H), pro-fibrogenic marker proteins (FIG. 11I) and mRNAs (FIG. 11J). Bars indicate mean±SD. *P<0.05, **P<0.01, ***P<0.001 and ****P<0.0001 were obtained by one-way ANOVA with Turkey's multiple comparison.
FIGS. 12A-12E. WT mice with BLM-PF were treated with or without rM9^ECD (1.5 mg/kg) via intratracheal (IT) instillation daily for 7 d starting d 14 after BLM. Survival (FIG. 12A), body weights (FIG. 12B), lung volumes (FIG. 12C) and lung weights (FIG. 12D) were measured on d 21 post-BLM. Lung homogenates were tested for soluble collagen (FIG. 12E).
FIGS. 13A-13B. FIG. 13A: fLfs (IPF) treated with PBS or M9^mAb (2 μg/ml) or control IgG, tested for pro-fibrogenic proteins (i) and mRNAs (ii). FIG. 13B: WT mice with BLM-PF were left untreated, or intraperitoneal (IP) injected with control IgG or M9^mAb (2.5 mg/kg) daily for 7 d starting 14 d after IT BLM. Body weights (i) and total lung hydroxyproline (ii), and soluble collagen (iii) were measured. […]

| Molecule | BLM-induced pulmonary fibrosis (overall) (listed as Full Length U5A Protein) | BLM-induced pulmonary fibrosis (overall) (listed as U5a^FL) | BLM-induced pulmonary fibrosis (overall) (listed as U5 protein) | BLM-induced fibrogenic marker proteins (Col1, FN, TN-C, α-SMA) in whole lung homogenates | body weight | collagen and other extracellular matrix deposits (Trichrome staining of lung sections) | fibrogenic marker transcripts in whole lung homogenates | lung weight | lung compliance | lung elastance | whole lung total hydroxyproline | BLM-induced pulmonary fibrosis (overall) | BLM-induced pulmonary fibrosis (overall) (listed as A5^FL) | BLM-induced pulmonary fibrosis (overall) (listed as ALG5 (A5) Protein) |
| --- | --- | --- | --- | --- | --- | --- | --- | --- | --- | --- | --- | --- | --- | --- |
| U5A protein: recombinant full length human UNC5A protein (SEQ ID NO: 5) (protein, listed as Homo sapiens) MAVRPGLWPALLGIVLAAWLRGSGAQQSATVANPVPGANPDLLPHFLVEPEDVYIVKNKPVLLVCKAVPATQIFFKCNGEWVRQVDHVIERSTDGSSGLPTMEVRINVSRQQVEKVFGLEEYWCQCVAWSSSGTTKSQKAYIRIAYLRKNFEQEPLAKEVSLEQGIVLPCRPPEGIPPAEVEWLRNEDLVDPSLDPNVYITREHSLVVRQARLADTANYTCVAKNIVARRRSASAAVIVYVDGSWSPWSKWSACGLDCTHWRSRECSDPAPRNGGEECQGTDLDTRNCTSDLCVHTASGPEDVALYVGLIAVAVCLVLLLLVLILVYCRKKEGLDSDVADSSILTSGFQPVSIKPSKADNPHLLTIQPDLSTTTTTYQGSLCPRQDGPSPKFQLTNGHLLSPLGGGRHTLHHSSPTSEAEEFVSRLSTQNYFRSLPRGTSNMTYGTFNFLGGRLMIPNTGISLLIPPDAIPRGKIYEIYLTLHKPEDVRLPLAGCQTLLSPIVSCGPPGVLLTRPVILAMDHCGEPSPDSWSLRLKKQSCEGSWEDVLHLGEEAPSHLYYCQLEASACYVFTEQLGRFALVGEALSVAAAKRLKLLLFAPVACTSLEYNIRVYCLHDTHDALKEVVQLEKQLGGQLIQEPRVLHFKDSYHNLRLSIHDVPSSLWKSKLLVSYQEIPFYHIWNGTQRYLHCTFTLERVSPSTSDLACKLWVWQVEGDGQSFSINFNITKDTRFAELLALESEAGVPALVGPSAFKIPFLIRQKIISSLDPPCRRGADWRTLAQKLHLDSHLSFFASKPSPTAMILNLWEARHFPNGNLSQLAAAVAGLGQPDAGLFTVSEAEC | Mitigated | mitigated | mitigated | inhibition | improvement | reduction | inhibition | reduction | improved | improved | reduction |  |  |  |
| A5 protein: recombinant full length human ALG5 protein (SEQ ID NO: 9) (protein, listed as Homo sapiens) MAPLLLQLAVLGAALAAAALVLISIVAFTTATKMPALHRHEEEKFFLNAKGQKETLPSIWDSPTKQLSVVVPSYNEEKRLPVMMDEALSYLEKRQKRDPAFTYEVIVVDDGSKDQTSKVAFKYCQKYGSDKVRVITLVKNRGKGGAIRMGIFSSRGEKILMADADGATKFPDVEKLEKGLNDLQPWPNQMAIACGSRAHLEKESIAQRSYFRTLLMYGFHFLVWFLCVKGIRDTQCGFKLFTREAASRTFSSLHVERWAFDVELLYIAQFFKIPIAEIAVNWTEIEGSKLVPFWSWLQMGKDLLFIRLRYLTGAWRLEQTRKMN |  |  |  | inhibition | improvement | reduction | inhibition | reduction | improved | improved | reduction | mitigated | mitigated | Mitigated |
| A5^ECD: recombinant extracellular domain of A5 (ECD of hALG5) (protein, listed as Homo sapiens) MTTATKMPALHRHEEEKFFLNAKGQKETLPSIWDSPTKQLSVVVPSYNEEKRLPVMMDEALSYLEKRQKADPAFTYEVIVVDDGSKDQTSKVAFKYCQKYGSDKVRVITLVKNRGKGGAIRMGIFSSRGEKILMADADGATKFPDVEKLEKGLNDLQPWPNQMAIACGSRAHLEKESIAQRSYFRTLLMYGFHFLVWFLCVKGIRDTQCGFKLFTREAASRTFSSLHVERWAFDVELLYIAQFFKIPIAEIAVNWTEIEGSKLVPFWSWLQMGKDLLFIRLRYLTGAWRLEQTRKMN |  |  |  |  |  |  |  |  |  |  |  | mitigated |  |  |
